Data from PMC4601640, “Stability of the Human Hsp90-p50^Cdc37 Chaperone Complex against Nucleotides and Hsp90 Inhibitors, and the Influence of Phosphorylation by Casein Kinase 2” (Molecules, 2015).

T1: human full-length p50^Cdc37 (residues 1-378) (human), Q16543
T1 chain: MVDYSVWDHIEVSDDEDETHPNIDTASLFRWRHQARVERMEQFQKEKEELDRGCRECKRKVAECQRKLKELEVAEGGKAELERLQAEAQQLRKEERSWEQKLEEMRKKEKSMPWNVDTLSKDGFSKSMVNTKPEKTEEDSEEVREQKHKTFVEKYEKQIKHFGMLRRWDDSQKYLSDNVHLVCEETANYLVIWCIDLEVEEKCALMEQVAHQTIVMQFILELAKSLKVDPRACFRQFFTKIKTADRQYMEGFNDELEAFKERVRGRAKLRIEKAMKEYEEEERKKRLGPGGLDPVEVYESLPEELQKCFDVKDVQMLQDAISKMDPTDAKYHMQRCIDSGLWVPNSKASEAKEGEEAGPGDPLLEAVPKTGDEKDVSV


Key:
[1] = molecular target: the different Hsp90 proteins; assay: ITC; p50^Cdc37 (200 µM) titrated into Hsp90 (20 µM); 50 mM HEPES pH 7.5, 10 mM MgCl2, 30 °C
[2] = molecular target: T1, human full-length p50^Cdc37 (residues …); assay: SEC; analytical Superdex200 10/300 GL, room temperature, 0.3 mL/min; 85 µM protein in 50 mM HEPES pH 7.5, 50 mM KCl, 5 mM MgCl2, 1 mM DTT; fractions on SDS-PAGE; details: remark: other sources report otherwise

| Kd [1] [µM] | stoichiometry N [2] | Binder |
| --- | --- | --- |
| 1.1 to 1.9 | – | human full-length p50^Cdc37 (residues 1-378) (natural protein) MVDYSVWDHIEVSDDEDETHPNIDTASLFRWRHQARVERMEQFQKEKEELDRGCRECKRKVAECQRKLKELEVAEGGKAELERLQAEAQQLRKEERSWEQKLEEMRKKEKSMPWNVDTLSKDGFSKSMVNTKPEKTEEDSEEVREQKHKTFVEKYEKQIKHFGMLRRWDDSQKYLSDNVHLVCEETANYLVIWCIDLEVEEKCALMEQVAHQTIVMQFILELAKSLKVDPRACFRQFFTKIKTADRQYMEGFNDELEAFKERVRGRAKLRIEKAMKEYEEEERKKRLGPGGLDPVEVYESLPEELQKCFDVKDVQMLQDAISKMDPTDAKYHMQRCIDSGLWVPNSKASEAKEGEEAGPGDPLLEAVPKTGDEKDVSV |
| – | 2 | human full-length p50^Cdc37 (residues 1-378), Q16543 1-378 (natural protein) MVDYSVWDHIEVSDDEDETHPNIDTASLFRWRHQARVERMEQFQKEKEELDRGCRECKRKVAECQRKLKELEVAEGGKAELERLQAEAQQLRKEERSWEQKLEEMRKKEKSMPWNVDTLSKDGFSKSMVNTKPEKTEEDSEEVREQKHKTFVEKYEKQIKHFGMLRRWDDSQKYLSDNVHLVCEETANYLVIWCIDLEVEEKCALMEQVAHQTIVMQFILELAKSLKVDPRACFRQFFTKIKTADRQYMEGFNDELEAFKERVRGRAKLRIEKAMKEYEEEERKKRLGPGGLDPVEVYESLPEELQKCFDVKDVQMLQDAISKMDPTDAKYHMQRCIDSGLWVPNSKASEAKEGEEAGPGDPLLEAVPKTGDEKDVSV |
